# Assay: yeast display, Sf9 membrane polyspecificity reagent, FACS + sequencing; frameworks hold sequencing errors
# Summary of the method: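 Polyreactivity labels are assigned by the sorting gate from which each nanobody was recovered. The gates were low and high (top ~1%), set on anti-HA fluorescence for expression and streptavidin fluorescence for reagent binding. Before sorting, galactose-induced (36–48 hours) yeast display cells were stained for 1 hour at 4 °C with 10% biotinylated, detergent-solubilized Sf9 membrane reagent.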
row,Sequence,polyreactivity (PSR sort gate)
1,QVQLVESGGGLVQAGGSLRLSCAASGRIFYPNAMGWYRQAPGKERELVAAITWRGGRTYYADSVKGRFTISRDNAKNTVYLQMNSLKPEDTAVYYCNAVAPGKYNHWGQGTQVTVSS,high polyreactivity
2,QVQLVESGGGLVQAGGSLRLSCAASGRIFYPNAMGWYRQAPGKERELVAVIRSRGGSTYYADSVKGRFTISRDNAKNTVYLQMNSLKPEDTAVYYCAARWVGRRTKYDYWGQGTQVTVSS,high polyreactivity
3,QVQLVESGGGLVQAGGSLRLSCAASGRIFYPYAMGWYIQAPGKEREFVATIRARCGDSTSYADSVKGRFTISRDIAKNTVYLQMNSLKPEDTAVYYCAALFYTYRWRYYVYHMDYWGQGTQVTVSS,low polyreactivity
4,QVQLVESGGGLVQAGGSLRLSCAASGRIFYPYAMGWYRQAPGKERELVAAIRRSGVDTYYADSVKGRFTISRDNAKNTVYLQMNSLIPEDTAVYSCAADPYWFFPHYDSWGQGTQVTVSS,low polyreactivity
5,QVQLVESGGGLVQAGGSLRLSCAASGRIFYPYAMGWYRQAPGKERELVAAISFRDGSTYYADSVKGRFTISRDNAKYTVYLQLNILKPEDTAVYYCAAVGQTHPTSPLYTKYDYWGQGTQVTVSS,low polyreactivity
6,QVQLVESGGGLVQAGGSLRLSCAASGRIFYPYAMGWYRQAPGKERELVAAISRSGGSTYYADSVKGRFTISRDNAKNTVYLQMNSLKPEDTAVYYCAAEVVYFYSDAHIGYVDYEYWGQGTQVTVSS,low polyreactivity
7,QVQLVESGGGLVQAGGSLRLSCAASGRIFYPYAMGWYRQAPGKERELVAAISWNGGRTYYADSVKGRFTISRDNAKNTVYLQMNSLKPEDTAVYYCNAGGYSRVTQRFFHKYDYWGQGTQVTVSS,high polyreactivity
8,QVQLVESGGGLVQAGGSLRLSCAASGRIFYPYAMGWYRQAPGKEREVVAGITSSDDTTYYADSVKGRFTISRDNAKNTVYLQMNSLKPEDTAVYYCNTSVDRGLGYWGQGTQVTVSS,low polyreactivity
9,QVQLVESGGGLVQAGGSLRLSCAASGRIFYQNAMGWYRQAPGKERELVAAISRGDSTYYADSVRGRFTSSRDNAKNTVFLQMNSLKPEDTAVYYCAARRFSYWGKYGYWGQGTQVTVSS,high polyreactivity
10,QVQLVESGGGLVQAGGSLRLSCAASGRIFYRNAMGWYRQAPGKERELVAAISKSGGSTYYADSVKGRFTISRDNAKNTVYLQMNSLKPEDTAVYYCNARPGQSGARFGYWGQGTQVTVSS,high polyreactivity
11,QVQLVESGGGLVQAGGSLRLSCAASGRIFYRNAMGWYRQAPGKERELVAAITGSTGNTYYADSVKGRFTISRDNAKNTVYLQMNSLKPEDTAVYYCIAGLGRWWHYPATYYYYWGQGTQVTVSS,low polyreactivity
12,QVQLVESGGGLVQAGGSLRLSCAASGRIFYRNAMGWYRQAPGQERELVAGITRGGSTNYADSVKGRFTLSRDNAKNTVFLHMNSLKPEDTAVYYCAASWPSSLTYYYWGQGSQVTVSS,low polyreactivity
13,QVQLVESGGGLVQAGGSLRLSCAASGRIFYRNAMGWYRQSPGKERELVAAINWSGGSTYYAYSVKGRFTISRDNAKNTVYLQMNSLKPEDTAVYYCATGYRQGEYDYWGQGTQVTLSS,low polyreactivity
14,QVQLVESGGGLVQAGGSLRLSCAASGRIFYRNVMGWYRQAPGKERELVAAISYRGGSTSYADSVKGRFTISRDNAKNTVYLPMHILKPEDTAVDYCNAARIRPAYSDREYWGQGTQVTVSS,low polyreactivity
15,QVQLVESGGGLVQAGGSLRLSCAASGRIFYRNVMGWYRQAPGKERELVAAITYRTGSTYYADSVKGRFTISRDNAKNTVYLQMNSLKPEDTAVYYCATESGLTYDYWGQGTQVTVSS,high polyreactivity
16,QVQLVESGGGLVQAGGSLRLSCAASGRIFYRYAMGWDSQAPGKERELVAAISCGGSTYYADSVKGRFTISRDNAKNTVYLQMNSLKPEDSAVYYCAATWGRGTYYLYYYWGQGTQVTVSS,high polyreactivity
17,QVQLVESGGGLVQAGGSLRLSCAASGRIFYRYAMGWYRQAPGKERELVAAITIGGRTNYADSVKGRFTISRDNAKNTVYLQMNSLKPEDTAVYYCAVVLYTRYPPRVRYYYWGQGTQVTVSS,high polyreactivity
18,QVQLVESGGGLVQAGGSLRLSCAASGRIFYRYVMGWYRQAPGKERELVAAITSSGGSTYYADSVKGRFTISRDNAKNTVYLQMNSLNPEDTAVYYCAADRYTRYRYNYWGQGTQVTVSS,high polyreactivity
19,QVQLVESGGGLVQAGGSLRLSCAASGRIFYSNAMGWYRQAPGKAWELVATISRRGGRTYSADSVKGRFTLSRDIAKNTVYLQMNSLKPEDTAVYYCNANDRNAGSSRGGRLYDSWGQGTQVTVSS,high polyreactivity
20,QVQLVESGGGLVQAGGSLRLSCAASGRIFYSNAMGWYRQAPGKEREFVAAISWSGGGTYYADSVKGRFTISRDNAKNTVYLQMNSLKPEETAVYYCAAVFGYSWAFEYDYWGQGTQVTVSS,low polyreactivity
21,QVQLVESGGGLVQAGGSLRLSCAASGRIFYSNAMGWYRQAPGKERELVAAIRWSGGRTYYADSVNGRFTISRDNAKNSVYLQMNSLKPEDTAGYYCNARGYSGVSGKYGYWGQGTQVTVSS,high polyreactivity
22,QVQLVESGGGLVQAGGSLRLSCAASGRIFYSNAMGWYRQAPGKERELVAAISRSGVRTYYADSVKGRFTISRDNAKNTVYLQMNSLKPEDTAVYYCAAVIYGTTPQDEYDYWGQGTQVTVSS,low polyreactivity

row,Sequence,polyreactivity (PSR sort gate)
1,QVQLVESGGGLVQAGGSLRLSCAASGRIFYSNAMGWYRQAPGKERELVAVIRRTGSTYYAASVKGRFTISRDNAKNTVYLQMISQIPEDTAVYYCATSIPYGRGGNRYVYWGQGTQVTVSS,high polyreactivity
2,QVQLVESGGGLVQAGGSLRLSCAASGRIFYSNTMGWYRQAPGKERELVAAISRSGGRTYYADSVKGRFTISRDNAKNTVSLQLNSLKPEDTAVYYCNTAYCRNPYYKGYYWGQGTQVTVSS,high polyreactivity
3,QVQLVESGGGLVQAGGSLRLSCAASGRIFYSNTMGWYRQAPGKERELVARIDTGGGSTYADSVKGRFTISRDNAKNTVYLQMNSLKPEDTAVYYCNKKGRWRSWGSTSMVSMDYWGQGTQVTVSS,low polyreactivity
4,QVQLVESGGGLVQAGGSLRLSCAASGRIFYSNVMGWYRQAPGKERELVAAISGRTGGTYYADSVKGRFTISRDNAKNTVYLQMNSLKPEATAVYYCAARVIYYYGSGPYDYWGQGTQVTVSS,low polyreactivity
5,QVQLVESGGGLVQAGGSLRLSCAASGRIFYSNVMGWYRQAPGKERELVAAITSGGSTYYADSVKGRFTISRDNAKNTVYLQMNSLKPEDTAVYYCAARVAFRPRGYIRYYYWGQGTQVTVSS,high polyreactivity
6,QVQLVESGGGLVQAGGSLRLSCAASGRIFYSYAMGWYRQAPGKERELVAAIDESDGSTYYADSVKGRFTISRDNAKNTVYLQMNSLKPEDTAVYYCAADSLLVLFDYWGQGTQVTVSS,low polyreactivity
7,QVQLVESGGGLVQAGGSLRLSCAASGRIFYSYAMGWYRQAPGKERELVAAIRRGGSTNYADSVKGRFTISRDNAKKTVYLQMNSLKPEDTAVYYCAAKGYKGYFLYNYWGQGTQVTVSS,high polyreactivity
8,QVQLVESGGGLVQAGGSLRLSCAASGRIFYSYAMGWYRQAPGKERELVAAISFSVGSTYYADSVKGRFTISRDNAKYTVYLQMNSLKPEDTAVYYCAASLGFPGYEYWGQGTQVTVSS,low polyreactivity
9,QVQLVESGGGLVQAGGSLRLSCAASGRIFYSYAMGWYRQAPGKERELVAAISSAGSTYYADSVKGRFTISRDNAKNTVYLQMNSLKPEDTAVYYCAAGVTYYRYVSYVGPVPLGFDYWGQGTQVTVSS,high polyreactivity
10,QVQLVESGGGLVQAGGSLRLSCAASGRIFYSYAMGWYRQAPGKERELVAALYSDGSTDYADSVKGRFTISRDNAKNTVYLQMNSLTPEDTAVYFCAADWGWRYVLPVGWFRYGYWGQGTQVTVSS,low polyreactivity
11,QVQLVESGGGLVQAGGSLRLSCAASGRIFYSYAMGWYRQAPGKERELVASITSSGGSTYADSVKGRFTISRDNAKNTVYLQMNSLKPEDTAVYYFDYWGQGTQVTVSS,low polyreactivity
12,QVQLVESGGGLVQAGGSLRLSCAASGRIFYSYAMGWYRQAPGKERELVATITRRGSSTYYADSVKGRFTISRDNAKNTVYLQMNSLKPEDTAVYYCNAVGVRRAIGYPSQTEYGYWGQGTQVTVSS,high polyreactivity
13,QVQLVESGGGLVQAGGSLRLSCAASGRIFYSYGMGWYRQAPGKERELVASITISGGGSTYYADSVKGRFTISRDNAKNTVYLQMNSLKPEDTAVYYCAATRTVWKYIYDYWGQGTQVTVSS,high polyreactivity
14,QVQLVESGGGLVQAGGSLRLSCAASGRIFYTNAMGWYRQAPGKERELVAVISWGGDTTYYADSVKGRFTISRDNATNTVYLQMNSLKPEDTAVYYCNADWGPTYEIYDSWGQGTQVTVSS,low polyreactivity
15,QVQLVESGGGLVQAGGSLRLSCAASGRIFYTYAMGWYRQAPGKERELVAAINRSGSSTYYADSVKGRFTISRDNAKNTVYLQMNSLKPEDTAVYYCNAQSYRYYGWVLTDVDYWGQGTQVTVSS,low polyreactivity
16,QVQLVESGGGLVQAGGSLRLSCAASGRIFYTYAMGWYRRAPGKERELVAAIRISGVRTYYADSVKGRFTISRDNAKNTVYLQMNSLKPEDTAVYYCAADSYGDRMDYWGQGTQVTVSS,high polyreactivity
17,QVQLVESGGGLVQAGGSLRLSCAASGRIFYTYAMGWYRTAPGKERELVAAISSRTGSTYYADSVKWRFTISRDNAKNTVYLQMNSLKPEDTAVYYCNAYRLRYGYDYWGQGTQVTVSS,high polyreactivity
18,QVQLVESGGGLVQAGGSLRLSCAASGRIFYTYVMGWYIQAPGKERELVASISSSGGSTNYADSVKGRFTISRDNAKNTVYLQMNSLKPEDTAVYYCNKDYIHVSYREDYWGQGTQVTVSS,low polyreactivity
19,QVQLVESGGGLVQAGGSLRLSCAASGRIFYVNAMGWYRQAPGKERELVATIRYSGGSTYYADSVKGRFTISRDNAKNTVYLQMNSLKPEDTAVYYCAARVADYYPGRGYGYWGQGTQVTVSS,high polyreactivity
20,QVQLVESGGGLVQAGGSLRLSCAASGRIFYVYAMGWYRQAPGKERELVATIDWSGGSTYYADSVKGRFTISRDNAKITVYLQMNSLKPEDTAVYYCAAYYTSYWGYDYDYWGQGTQVTVSS,low polyreactivity
21,QVQLVESGGGLVQAGGSLRLSCAASGRIFYWNAMGWYRQAHGKERELVAAISWSGGSTYYADSVKGRFTISRDNAKNTVYLQMNSLKPEDTAVYYCAADGGRRTYYVKYDYWGQGTQVTASS,low polyreactivity
